Data on one molecule can be found in patent publication US20090011979A1 (published 2009).

One assay concerns the target T1, mouse IL-18 (mouse, UniProt P70380 36-192).
T1 chain: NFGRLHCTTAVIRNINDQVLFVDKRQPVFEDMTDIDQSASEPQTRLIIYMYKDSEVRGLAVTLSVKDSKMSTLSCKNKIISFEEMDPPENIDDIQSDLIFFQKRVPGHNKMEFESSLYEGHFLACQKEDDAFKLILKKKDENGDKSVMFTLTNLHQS
As to the kind of experiment: SPR. (In SPR one partner is held on a chip, and binding of the other changes the refractive index at the surface.)

Another assay has as its target human IL-18 (human, UniProt Q14116 37-193). As to the kind of experiment: SPR.

For orientation: Kd means the concentration at which binding is half-saturated.

Chain of human IL-18 (Q14116 37-193): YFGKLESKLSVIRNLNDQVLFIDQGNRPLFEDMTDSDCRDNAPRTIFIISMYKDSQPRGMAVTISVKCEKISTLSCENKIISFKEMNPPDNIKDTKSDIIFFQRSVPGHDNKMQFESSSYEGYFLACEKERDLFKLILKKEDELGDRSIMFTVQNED

B1: untagged YCI (YMTV IL-18 bp, YMTV Cytokine Inhibitor, without tag) (other)
chain: EKECDKHRSVNIQVPMKETSEVLLRCTGSSYFKHFSYVYWLVGESETVDQLQQNSGYGETSHPSKPHECGNLPSADLVLTNMTEKMRDTKLTCVLMDPDGHIDESLVLREVWDCFNKT
B1: the Kd amounted to 7.6 nM in the assay with mouse IL-18 and 8.13 nM in the assay with human IL-18.
